In the supplement of paper PMC10567573:

B1: CPN1 (parent)
chain: RGVRRTASTPTPDDKLFQKLAKVY
B2: HESX1 (parent)
chain: QKKDCVPLMKPHRPWADTCSSSGK

Variants of: B1
Assay: protein stability index of a GFP-peptide fusion (GPS, HEK-293T) (PSI 1-6); higher = more stable
Settings: c terminus: a fixed tail appended
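Note: lentivirally expressed fusions sorted by FACS into six bins by GFP to DsRed ratio, PSI derived from sequencing read proportions per bin multiplied by bin number.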

Protein stability index, by site and new letter:
P12: Q 2.05 | N 1.98 | R 1.89 | L 1.44 | C 1.65 | T 1.81 | G 2.4 | M 2.01 | Y 2.94 | F 2.38
R4: V 2.35 | H 2.17 | W 2.02 | G 2.57 | E 2.16 | K 1.51 | I 2.56 | C 3.17 | S 2.76 | Q 1.76 | A 2.01
T9: Q 1.84 | G 3.11 | I 1.68 | Y 1.52 | C 2.57 | K 2.57 | W 2.02 | N 1.54 | F 2.3 | A 2.07 | P 3 | V 1.97
T6: E 2.12 | Q 2 | N 1.56 | Y 1.59 | H 1.49 | P 1.23 | K 1.61 | C 1.52 | V 2.56 | W 2.02 | L 1.73
K19: P 2.93 | F 2.53 | T 1.98 | L 2.36 | V 2.1 | G 2.21
D13: R 1.63 | C 1.2 | F 1.99 | V 1.78 | T 1.27 | L 1.65 | H 2.08 | G 2.37 | Y 2.24 | E 1.24 | Q 1.94
Q18: V 1.82 | F 1.43 | M 1.47 | A 1.93 | R 1.77 | K 1.84 | D 2.32 | Y 1.78 | G 2.29 | H 2.02 | I 1.75
K15: I 1.76 | P 2.12 | Q 2.08 | S 2.02 | C 1.95 | N 1.7 | D 1.99 | H 1.75
R1: Q 2.42 | M 1.93 | A 1.4 | L 2.88 | K 1.89 | P 2.27 | F 1.92 | V 2.34 | S 2.85
L20: W 2.58 | I 1.92 | G 3.86 | M 2.23 | C 2.56 | N 3.48 | E 3.85 | P 3.58 | F 1.82 | V 3.48 | T 3.52 | K 3.68 | H 3.22 | R 3.3
A21: E 3.11 | Y 2.27 | V 1.6 | W 2.22 | D 2.78 | T 1.78 | H 2.29 | R 1.83 | F 1.64 | P 2.62 | N 2.66 | K 1.76
P10: F 2.19 | T 1.75 | C 2.07 | S 2.09 | H 1.34 | K 1.8 | N 2.06 | Q 1.78 | R 1.74 | A 2.13 | E 2.81 | Y 1.79
K22: W 2.19 | L 2.73 | Q 1.7 | G 2.82 | E 1.87 | Y 1.97 | S 1.93 | T 1.96
G2: L 1.24 | C 2.22 | V 2.84 | M 1.79 | I 1.76 | Y 1.64 | A 2.52 | P 2.19 | K 2.38 | Q 1.94 | R 1.66 | T 2.23 | H 1.87
T11: Q 2.29 | E 2.1 | Y 2.25 | I 1.71 | H 2.04 | M 2.03 | A 2.29 | N 2.23 | R 1.82
V23: N 3.73 | D 3.02 | W 1.92 | H 2.78 | T 2.4 | G 3.09 | I 2.27 | P 3.51 | C 2.58
S8: T 1.6 | D 2.19 | F 1.7 | G 1.1 | Q 2.18 | K 2.85 | M 1.44 | N 2.1 | Y 3
F17: D 3.32 | Q 3.21 | V 2.58 | N 2.88 | S 2.94 | I 2.53 | R 3.43 | L 2.15 | Y 2.28 | M 3
Y24: M 1.66 | H 3.1 | P 2.72 | T 3.64 | R 2.29 | S 2.72 | V 2.7 | G 3 | W 1.98 | Q 2.92 | F 1.95 | C 2.22 | D 3.48
A7: S 1.97 | F 1.25 | Y 2 | E 2.05 | R 1.71 | M 1.62 | V 2.75 | T 2.07 | C 1.57 | L 1.17 | P 1.85 | D 2.05 | H 1.41
L16: A 2.65 | H 2.64 | Q 3.31 | S 2.95 | K 3.56 | C 2.52 | E 2.68 | M 2.65 | I 2.61 | W 1.85 | V 2.29 | F 1.9 | G 3.29
D14: T 2.38 | M 2.45 | N 1.54 | Q 2.35 | Y 1.48 | R 1.93 | V 2.19 | I 1.23 | W 1.68
V3: H 2.13 | A 2.16 | C 2 | E 2.24 | L 2.24 | Y 2.27 | Q 1.88 | D 2.58 | R 2.84
R5: C 3.3 | H 2.35 | Y 1.89 | T 2.94 | L 2.07 | I 2.33 | S 2.23 | A 3.41 | F 1.57 | W 2.2 | V 1.87 | M 2.51

Variants of: B2
Assay: as above
Settings: c terminus: a fixed tail appended

Protein stability index, by site and new letter:
D4: L 2.38 | Y 2.72 | R 2.43 | F 2.61 | N 3.24 | C 2.38 | Q 3.54 | P 2.86 | W 2.39 | G 3.05 | I 3.25 | H 3.08 | A 2.87 | T 2.49 | K 2.89 | M 2.12 | S 2.92 | V 2.17
K3: W 4.36 | F 4.05 | S 3.69 | C 3.27 | P 3.62 | H 3.66 | L 3.42 | M 3.53 | V 3.47 | N 3.67 | R 2.92 | T 3.13 | A 3.52 | Q 3.06 | Y 3.06 | I 3.01 | D 3.81 | G 3.2
Q1: L 2.01 | E 3.98 | K 3.06 | M 3.03 | P 3.66 | T 3.4 | A 2.76 | R 3.74 | I 3.46 | D 3.95 | S 3.49 | W 2.69 | F 3.17 | G 4.01 | C 2.94 | N 3.22 | H 3.86 | Y 2.45
K2: N 3.33 | V 3.12 | P 3.89 | T 3.67 | F 3.46 | G 3.06 | Y 2.51 | I 3.17 | D 4.3 | A 3.27 | S 3.06 | E 4.16 | M 3.24 | W 2.88 | C 4.18 | H 3.4 | L 3.3
C5: A 3.08 | G 2.62 | F 3.38 | H 3.83 | D 3.57 | K 2.81 | E 4.15 | I 2.51 | L 3.59
